The test has as its target T1, GST-PCAF (aa 352–832) (human, UniProt Q92831 352-832).
T1 construct: PCAF (KAT2B), residues 352-832, fused to GST; Written GST-PCAF; source: bacterially expressed and purified
Nature of the test: pull-down; purified VRK1-His and GST-PCAF (aa 352–832) incubated in 20 mM Tris–HCl pH 7.5, 5 mM MgCl2, 0.5 mM DTT, 150 mM KCl at 37 °C for 45 min; Glutathione Sepharose 4B overnight at 4 °C; SDS-PAGE, Coomassie staining; dose-dependent. The note with it: both partners purified.

Data on one molecule can be found in PMC10182654, “The pattern of histone H3 epigenetic posttranslational modifications is regulated by the VRK1 chromatin kinase” (Epigenetics & Chromatin, 2023).

T1 sequence (Q92831 352-832): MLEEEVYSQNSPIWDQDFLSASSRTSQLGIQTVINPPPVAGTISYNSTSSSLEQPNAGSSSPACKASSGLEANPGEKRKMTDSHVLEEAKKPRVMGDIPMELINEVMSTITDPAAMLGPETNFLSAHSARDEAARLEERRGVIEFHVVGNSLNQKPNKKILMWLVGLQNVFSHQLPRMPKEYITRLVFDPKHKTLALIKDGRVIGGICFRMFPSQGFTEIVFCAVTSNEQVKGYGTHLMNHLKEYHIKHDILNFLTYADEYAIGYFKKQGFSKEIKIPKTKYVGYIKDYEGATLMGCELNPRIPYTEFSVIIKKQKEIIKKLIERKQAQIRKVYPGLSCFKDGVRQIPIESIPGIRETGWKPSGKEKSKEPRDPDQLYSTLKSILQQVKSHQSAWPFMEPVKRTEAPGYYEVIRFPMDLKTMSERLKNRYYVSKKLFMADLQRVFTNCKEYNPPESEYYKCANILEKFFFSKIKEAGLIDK

B1: VRK1-His (enzyme, human, UniProt Q99986 1-396, looked up)
chain: MPRVKAAQAGRQSSAKRHLAEQFAVGEIITDMAKKEWKVGLPIGQGGFGCIYLADMNSSESVGSDAPCVVKVEPSDNGPLFTELKFYQRAAKPEQIQKWIRTRKLKYLGVPKYWGSGLHDKNGKSYRFMIMDRFGSDLQKIYEANAKRFSRKTVLQLSLRILDILEYIHEHEYVHGDIKASNLLLNYKNPDQVYLVDYGLAYRYCPEGVHKEYKEDPKRCHDGTIEFTSIDAHNGVAPSRRGDLEILGYCMIQWLTGHLPWEDNLKDPKYVRDSKIRYRENIASLMDKCFPEKNKPGEIAKYMETVKLLDYTEKPLYENLRDILLQGLKAIGSKDDGKLDLSVVENGGLKAKTITKKRKKEIEESKEPGVEDTEWSNTQTEEAIQTRSRTRKRVQK
notes: VRK1 with a His tag, bacterially expressed and purified; Printed both as His-VRK1 (results) and VRK1-His (methods); the end of the tag cannot be told; also called His-VRK1; source: bacterially expressed and purified
Regarding B1, the binding result is given as “binds”.
